Here are results for 1 molecule from article PMC6270943 (2014).

As usually defined, the Kd is the constant that tells how readily two partners part at equilibrium. Read a high Kd as weaker binding.

The test has as its target T1, antisense peptide IPPKYW.
T1 chain: IPPKYW
Kind of test: tryptophan fluorescence titration.

B1: Met-enkephalin (peptide)
chain: YGGFM
For B1, binding was put at a Kd of 19 µM.
